By EC50 is commonly meant the concentration at which the effect is half-maximal. Lower therefore signals greater potency.

The labels stand for the following.
B1: C40G1 (antibody, V domains shown)
VH: QLQLQESGPGLVKPSETLSLTCTVSGGSISSSFYYCGWIRQPPGKGLEWIGSIYYRGSTYYNPSLKSRVTISVDTSKNQFSLKLSSVTAADTAVYYCARRVTMVRGVKGDYFDYWGQGTLVTVSS
VL: DIQMTQSPSSLSASVGDRVTITCRASQGISSWLAWYQQKPEKVPKSLIYAASSLQSGVPSRFSGSGSGTDFTLTISSLQPEDFATYYCQQYNYYPLTFGGGTKVEIKR
B2: N547 (antibody, V domains shown)
VH: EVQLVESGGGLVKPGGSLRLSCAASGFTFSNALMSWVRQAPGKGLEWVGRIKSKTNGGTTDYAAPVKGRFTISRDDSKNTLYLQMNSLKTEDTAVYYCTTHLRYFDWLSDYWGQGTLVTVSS
VL: QSVLTQPPSMSAAPGQKVTISCSGSSSNIGNNYISWYQQLPGTAPKVLIYDNNKRPSGIPDRFSGSKSGTSATLGITGLQTGDEADYYCGSWDSSLSAGVFGTGTKVTVLG
B3: L66 (antibody, V domains shown)
VH: EVQLVESGGGVVRPGGSLRLSCAASGFTFDDYGMSWVRQAPGKGLEWVSGINWNGGSTGYADSVKGRFTISRDNAKNSLYLQMNSLRAEDTALYYCARDRVTMVRGVIMDYYGMDVWGQGTTVTVSS
VL: QTVVTQEPSLTVSPRGTVTLTCSSSTGAVTSGYYPGWFQLKPGQAPMSLIYSARKKHSWTPARFSGSLLGGKAALTLSGVQPEDEAEYYCLLYYGGAYVFGTGTKVTVLG
B4: C40G4 (antibody, V domains shown)
VH: B1 VH
VL: B1 VL

T1 sequence (P06821 whole entry): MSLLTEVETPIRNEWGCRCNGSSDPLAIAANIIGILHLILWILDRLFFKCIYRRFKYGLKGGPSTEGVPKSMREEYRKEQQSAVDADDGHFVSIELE

The first test has as its target T1, M2 expressed on MDCK cells infected with influenza A/PR/8/34 (influenza A virus A/PR/8/34, UniProt P06821 1-97).
T1 construct: whole, on cells
The experiment in a line: cell ELISA, A/PR/8/34-infected MDCK. A general note: In an ELISA, binding on a coated surface is turned into a signal by an enzyme label.
As for B1, the “fold greater reactivity than F1 and F2” value is more than 100 fold.

On to B2, for which the “fold greater reactivity than F1 and F2” value was more than 100 fold.

With B3, the “fold greater reactivity than F1 and F2” value was more than 100 fold.

Another test has as its target T1, M2 expressed on MDCK cells infected …. In words: cell ELISA on infected MDCK cells.
B1: the half-maximal effective concentration (EC50) stood at 0.183 µg/mL.

For B4, the response was half-maximal at 0.301 µg/mL (EC50).

B2 came in with an EC50 of 0.104 µg/mL.

As to B3, the EC50 worked out at 0.117 µg/mL.

Another test has the same target. The experiment in a line: cell ELISA, A/PR/8/34-infected MDCK, Ab 1 µg/ml, no peptide.
For B1, the OD450 was 0.799 OD450.

For B2, the OD450 is 0.504 OD450.

For B3, the OD450 came to 0.931 OD450.

A further test shares this target. In words: cell ELISA, A/PR/8/34-infected MDCK, Ab 1 µg/ml, competitor M2 peptide 20 µg/ml.
The molecule B1 returned an OD450 with competitor of 0.195 OD450.

For the molecule B2, the OD450 with competitor is 0.062 OD450.

As for B3, the OD450 with competitor was 0.113 OD450.

These data come from patent US20090162366A1 (KIRIN PHARMA, published 2009).
